Data on 1 substance can be found in US6740638.

The test has as its target rat MHC class II molecules on Lewis rat splenic adherent cells (antigen presenting cells) (rat). Kind of test: competition with 10 µM biotin-labeled MBP (87-99) for binding to OX-6/OX-17 positive rat splenic adherent cells, flow cytometry. (A flow cytometer gives signals particle by particle.)

What is called IC50 is the concentration needed to halve the response being measured. A low value points to greater potency in that assay.

“MBP (87-99) peptide analogue with alanine at position 91 (91K>A)” came in with an IC50 of 21 µM.
